Data: patent publication US20150352233A1

Biological target: Membrane Preparation Recombinant Human GLP-1 (GLP-1R) (human) (UniProt P43220)

non-labeled exendin4 (peptide; other documents disagree on this pair)
IC50: 0.19 nM
